From patent US20200255533A1 (NUMAB THERAPEUTICS, published 2020)
Changes are numbered by the printed parent chain. Names and notes keep the numbering of the source.

B1: Vκ3/VH4 consensus λ-capped (TNF-specific scFv) (scFv)
scFv: DIVLTQSPATLSLSPGERATLSCQASQSISDWLAWYQQKPGQAPRLLIYGASRLASGVPARFSGSGSGTDFTLTISSLEPEDFAVYYCQQGWSDSYVDNLFGGGTKLTVLGGGGGSGGGGSGGGGSGGGGSQVQLQESGPGLVKPSETLSLTCTVSGFSLSSGAMSWIRQPPGKGLEWIGVIISSGATYYASWAKGRVTISVDTSKNQFSLKLSSVTAADTAVYYCARGGPDDSNSMGTFDPWGQGTLVTVSS
notes: scFv
B2: Vκ3/VH4 consensus (T24K, T84S) λ-capped (TNF-specific scFv) (scFv)
scFv: B1 scFv with T154K, T204S
notes: scFv; also called Vκ3/VH4mut
B3: Vκ1/VH4 consensus λ-capped (TNF-specific scFv) (scFv)
scFv: DIQMTQSPSSLSASVGDRVTITCQASQSISDWLAWYQQKPGKAPKLLIYGASRLASGVPSRFSGSGSGTDFTLTISSLQPEDFATYYCQQGWSDSYVDNLFGGGTKLTVLGGGGGSGGGGSGGGGSGGGGSQVQLQESGPGLVKPSETLSLTCTVSGFSLSSGAMSWIRQPPGKGLEWIGVIISSGATYYASWAKGRVTISVDTSKNQFSLKLSSVTAADTAVYYCARGGPDDSNSMGTFDPWGQGTLVTVSS
notes: scFv; also called capped Vκ1/VH4 consensus molecule
B4: Vκ1/VH4 consensus (T24K, T84S) λ-capped (TNF-specific scFv) (scFv)
scFv: B3 scFv with T154K, T204S
notes: scFv; also called Vκ1/VH4mut; mutant variant of Vκ1/VH4

Molecular target: human TNF (human, UniProt P01375 77-233)
Sequence (P01375 77-233 limits assumed): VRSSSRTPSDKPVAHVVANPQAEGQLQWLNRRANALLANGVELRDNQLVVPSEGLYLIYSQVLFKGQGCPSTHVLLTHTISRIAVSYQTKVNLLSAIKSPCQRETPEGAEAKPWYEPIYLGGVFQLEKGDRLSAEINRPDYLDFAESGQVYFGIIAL
Assay: SPR, scFv

Question: Which Kd does the source give for B1 here?
Answer: 0.119 nM

Question: What about the koff of the same binder?
Answer: 5.25e-05 s⁻¹

Question: What about the kon of the same binder?
Answer: 440000 M⁻¹ s⁻¹

Question: For B2, which Kd is on record?
Answer: 0.0793 nM

Question: And the koff?
Answer: 3.09e-05 s⁻¹

Question: And the kon?
Answer: 390000 M⁻¹ s⁻¹

Question: Which Kd does the source give for B3 here?
Answer: 0.0533 nM

Question: And the koff?
Answer: 3.36e-05 s⁻¹

Question: And the kon?
Answer: 631000 M⁻¹ s⁻¹

Question: With B4 as the binder, how does the Kd read?
Answer: 0.043 nM

Question: And the koff?
Answer: 3.28e-05 s⁻¹

Question: What about the kon of the same binder?
Answer: 764000 M⁻¹ s⁻¹
